Results on 3 molecules are retold here after patent publication US20110237779A1 (Genentech, published 2011).

The target of assay [1] is T1, human tissue factor (human, UniProt P13726 33-251, limits assumed).
T1 construct: construct not described; also called TF
The assay is described as follows: phage ELISA, Fab on phage, competition with antigen in solution.

The target in assay [2] is T1, human tissue factor. The assay is described as follows: phage ELISA, solution competition: Fab-phage incubated with serially diluted TF, unbound phage captured on TF-coated wells; IC50 used as affinity estimate.

B1: D3 direct hypervariable region graft on the acceptor human consensus framework (Fab displayed on phage) (Fab, V domains shown)
VH: EVQLVESGGGLVQPGGSLRLSCAASGFNIKDYYMHWVRQAPGKGLEWVGWIDPENGNTIYDPKFQDRFTISADTSKNTAYLQMNSLRAEDTAVYYCARDTAAYFDYWGQGTLVTVSS
VL: DIQMTQSPSSLSASVGDRVTITCKASRDIKSYLSWYQQKPGKAPKLLIYYATSLADGVPSRFSGSGSGTDFTLTISSLQPEDFATYYCLQHGESPFTFGQGTKVEIK
notes: Monovalent Fab-g3 phage display: light chain, and VH-CH1 followed by the minor phage coat protein P3; Kabat numbering; No framework changes; also called D3 grafted variant; D3 graft
B1: the half-inhibitory concentration (IC50) was 20 nM with human tissue factor [1] and 19 nM with human tissue factor [2].

B2: D3 library clone, CDR-L3 LSDGSSPFT (Fab, V domains shown)
VH: EVQLVESGGGLVQPGGSLRLSCAASGFNIKDYYMHWVRQAPGKGLEWVGWIDPENGNTIYDPKFQDRFTISADTSKNTAYLQMNSLRAEDTAVYYCARDTAAYFDYWGQGTLVTVSS
VL: DIQMTQSPSSLSASVGDRVTITCKASRDIKSYLSWYQQKPGKAPKLLIYYATSLADGVPSRFSGSGSGTDFTLTISSLQPEDFATYYCLSDGSSPFTFGQGTKVEIK
notes: Changes against the D3 direct graft (Kabat): VL Q90S, H91D, E93S; copies: 1 + 1
For the molecule B2, in the assay with human tissue factor [2], the IC50 was 15 nM.

B3: D3 library clone, CDR-L3 LQDGESPFT, I58F, N82aI, D95N (Fab, V domains shown)
VH: EVQLVESGGGLVQPGGSLRLSCAASGFNIKDYYMHWVRQAPGKGLEWVGWIDPENGNTFYDPKFQDRFTISADTSKNTAYLQMISLRAEDTAVYYCARNTAAYFDYWGQGTLVTVSS
VL: DIQMTQSPSSLSASVGDRVTITCKASRDIKSYLSWYQQKPGKAPKLLIYYATSLADGVPSRFSGSGSGTDFTLTISSLQPEDFATYYCLQDGESPFTFGQGTKVEIK
notes: Changes against the D3 direct graft (Kabat): VL H91D; VH I58F, N82aI, D95N; copies: 1 + 1
On to B3, for which, in the assay with human tissue factor [2], the half-maximal inhibitory concentration (IC50) was 8 nM.

The IC50 is the concentration that gives 50% inhibition.
